Experimental data from US20230212319A1, “NOVEL ANTIGEN BINDING DOMAINS AND SYNTHETIC ANTIGEN RECEPTORS INCORPORATING THE SAME” (University of Southern California, priority 2020, published 2023).

B1: 22064 (protein)
chain: MALPVTALLLPLALLLHAARPQVQLVESGGGLVQPGGSLRLSCAASGFTFTNHAMSWVRQAPGKGLELVSSISGNGRTTYYADSVKGRFTISRDISKNTLDLQMNSLRAEDTAVYYCAKDGGETLVDSRGQGTLVTVSSLEGGGGSGGGGSGGGGSVEDLKNVFPPEVAVFEPSKAEIAHTQKATLVCLATGFYPDHVELSWWVNGKEVHSGVCTDPQPLKEQPALNDSRYCLSSRLRVSATFWQNPRNHFRCQVQFYGLSENDEWTQDRAKPVTQIVSAEAWGRADCGITSASYHQGVLSATILYEILLGKATLYAVLVSALVLMAMVKRKDSRGRAKRSGSGATNFSLLKQAGDVEENPGPTSMDWIWRILFLVGAATGAHSFEEVQLLESGGGLVQPGGSLRLSCAASGFTFSSYAMSWVRQAPGKGLEWVSSISGSGDYIYYADSVKGRFTISRDISKNTLYLQMNSLRAEDTAVYYCAKEGTGANSSLADYRGQGTLVTVSSTRIQNPDPAVYQLRDSKSSDKSVCLFTDFDSQTNVSQSKDSDVYITDKCVLDMRSMDFKSNSAVAWSNKSDFACANAFNNSIIPEDTFFPSPESSCDVKLVEKSFETDTNLNFQNLSVIGFRILLLKVAGFNLLMTLRLWSSRAKRSGSGVKQTLNFDLLKLAGDVESNPGPSRGHMTEYKPTVRLATRDDVPRAVRTLAAAFADYPATRHTVDPDRHIERVTELQELFLTRVGLDIGKVWVADDGAAVAVWTTPESVEAGAVFAEIGPRMAELSGSRLAAQQQMEGLLAPHRPKEPAWFLATVGVSPDHQGKGLGSAVVLPGVEAAERAGVPAFLETSAPRNLPFYERLGFTVTADVEVPEGPRTWCMTRKPGA
B2: 22075 (protein)
chain: MALPVTALLLPLALLLHAARPQVQLVESGGGLVQPGGSLRLSCAASGFTFTNHAMSWVRQAPGKGLELVSSISGNGRTTYYADSVKGRFTISRDISKNTLDLQMNSLRAEDTAVYYCAKDGGETLVDSRGQGTLVTVSSLEGQPKANPTVTLFPPSSEELQANKATLVCLISDFYPGAVTVAWKADGSPVKAGVETTKPSKQSNNKYAASSYLSLTPEQWKSHRSYSCQVTHEGSTVEKTVAPTECSGRADCGFTSESYQQGVLSATILYEILLGKATLYAVLVSALVLMAMVKRKDSRGRAKRSGSGATNFSLLKQAGDVEENPGPTSMDWIWRILFLVGAATGAHSFEEVQLLESGGGLVQPGGSLRLSCAASGFTFSSYAMSWVRQAPGKGLEWVSSISGSGDYIYYADSVKGRFTISRDISKNTLYLQMNSLRAEDTAVYYCAKEGTGANSSLADYRGQGTLVTVSSTRIQNPDPAVYQLRDSKSSDKSVCLFTDFDSQTNVSQSKDSDVYITDKCVLDMRSMDFKSNSAVAWSNKSDFACANAFNNSIIPEDTFFPSPESSCDVKLVEKSFETDTNLNFQNLSVIGFRILLLKVAGFNLLMTLRLWSSRAKRSGSGVKQTLNFDLLKLAGDVESNPGPSRGHMTEYKPTVRLATRDDVPRAVRTLAAAFADYPATRHTVDPDRHIERVTELQELFLTRVGLDIGKVWVADDGAAVAVWTTPESVEAGAVFAEIGPRMAELSGSRLAAQQQMEGLLAPHRPKEPAWFLATVGVSPDHQGKGLGSAVVLPGVEAAERAGVPAFLETSAPRNLPFYERLGFTVTADVEVPEGPRTWCMTRKPGA
B3: 22090 (protein)
chain: MALPVTALLLPLALLLHAARPQLQLQESGPGLVKPSETLSLTCTVSGDSISSGDYYWGWIRQPPGKGLEWIGHIYYSGVTYYNPSLKSRVTISVDTSRNQFSLKLSSVTAADTAVYYCTREDSSNWRSRGQGTLVTVSSLEDKTHTCPPCPAGRADCGFTSESYQQGVLSATILYEILLGKATLYAVLVSALVLMAMVKRKDSRGRAKRSGSGATNFSLLKQAGDVEENPGPTSMDWIWRILFLVGAATGAHSFEVQLLESGGGLIQPGGSLRLSCAASGFTFSSHAMTWVRQAPGKGLEWVSAISGSGDYTHYADSVKGRFTISRDNSKNTVYLQMNSLRAEDSAVYYCAKDEDGGSLLGHRGQGTLVTVSSTRIQNPDPAVYQLRDSKSSDKSVCLFTDFDSQTNVSQSKDSDVYITDKCVLDMRSMDFKSNSAVAWSNKSDFACANAFNNSIIPEDTFFPSPESSCDVKLVEKSFETDTNLNFQNLSVIGFRILLLKVAGFNLLMTLRLWSSRAKRSGSGVKQTLNFDLLKLAGDVESNPGPSRGHMTEYKPTVRLATRDDVPRAVRTLAAAFADYPATRHTVDPDRHIERVTELQELFLTRVGLDIGKVWVADDGAAVAVWTTPESVEAGAVFAEIGPRMAELSGSRLAAQQQMEGLLAPHRPKEPAWFLATVGVSPDHQGKGLGSAVVLPGVEAAERAGVPAFLETSAPRNLPFYERLGFTVTADVEVPEGPRTWCMTRKPGA
B4: 22099 (protein)
chain: MALPVTALLLPLALLLHAARPQVQLVESGGGLVQPGGSLRLSCAASGFTFTNHAMSWVRQAPGKGLELVSSISGNGRTTYYADSVKGRFTISRDISKNTLDLQMNSLRAEDTAVYYCAKDGGETLVDSRGQGTLVTVSSLEGQPKANPTVTLFPPSSEELQANKATLVCLISDFYPGAVTVAWKADGSPVKAGVETTKPSKQSNNKYAASSYLSLTPEQWKSHRSYSCQVTHEGSTVEKTVAPTECSGRADCGFTSESYQQGVLSATILYEILLGKATLYAVLVSALVLMAMVKRKDSRGRAKRSGSGATNFSLLKQAGDVEENPGPTSMDWIWRILFLVGAATGAHSFEEVQLLESGGGLVQPGGSLRLSCAASGFTFSSYAMSWVRQAPGKGLEWVSSISGSGDYIYYADSVKGRFTISRDISKNTLYLQMNSLRAEDTAVYYCAKEGTGANSSLADYRGQGTLVTVSSTRASTKGPSVFPLAPSSKSTSGGTAALGCLVKDYFPEPVTVSWNSGALTSGVHTFPAVLQSSGLYSLSSVVTVPSSSLGTQTYICNVNHKPSNTKVDKRVEPKSCIPEDTFFPSPESSCDVKLVEKSFETDTNLNFQNLSVIGFRILLLKVAGFNLLMTLRLWSSRAKRSGSGVKQTLNFDLLKLAGDVESNPGPSRGHMTEYKPTVRLATRDDVPRAVRTLAAAFADYPATRHTVDPDRHIERVTELQELFLTRVGLDIGKVWVADDGAAVAVWTTPESVEAGAVFAEIGPRMAELSGSRLAAQQQMEGLLAPHRPKEPAWFLATVGVSPDHQGKGLGSAVVLPGVEAAERAGVPAFLETSAPRNLPFYERLGFTVTADVEVPEGPRTWCMTRKPGA
B5: 22098 (protein)
chain: MALPVTALLLPLALLLHAARPQVQLVESGGGLVQPGGSLRLSCAASGFTFTNHAMSWVRQAPGKGLELVSSISGNGRTTYYADSVKGRFTISRDISKNTLDLQMNSLRAEDTAVYYCAKDGGETLVDSRGQGTLVTVSSLEGQPKANPTVTLFPPSSEELQANKATLVCLISDFYPGAVTVAWKADGSPVKAGVETTKPSKQSNNKYAASSYLSLTPEQWKSHRSYSCQVTHEGSTVEKTVAPTECSPIKTDVITMDPKDNCSKDANDTLLLQLTNTSAYYMYLLLLLKSVVYFAIITCCLLRRTAFCCNGEKSRAKRSGSGATNFSLLKQAGDVEENPGPTSMDWIWRILFLVGAATGAHSFEEVQLLESGGGLVQPGGSLRLSCAASGFTFSSYAMSWVRQAPGKGLEWVSSISGSGDYIYYADSVKGRFTISRDISKNTLYLQMNSLRAEDTAVYYCAKEGTGANSSLADYRGQGTLVTVSSTRASTKGPSVFPLAPSSKSTSGGTAALGCLVKDYFPEPVTVSWNSGALTSGVHTFPAVLQSSGLYSLSSVVTVPSSSLGTQTYICNVNHKPSNTKVDKRVEPKSCEVKTDSTDHVKPKETENTKQPSKSCHKPKAIVHTEKVNMMSLTVLGLRMLFAKTVAVNFLLTAKLFFLRAKRSGSGVKQTLNFDLLKLAGDVESNPGPSRGHMTEYKPTVRLATRDDVPRAVRTLAAAFADYPATRHTVDPDRHIERVTELQELFLTRVGLDIGKVWVADDGAAVAVWTTPESVEAGAVFAEIGPRMAELSGSRLAAQQQMEGLLAPHRPKEPAWFLATVGVSPDHQGKGLGSAVVLPGVEAAERAGVPAFLETSAPRNLPFYERLGFTVTADVEVPEGPRTWCMTRKPGA
B6: 22063 (protein)
chain: MALPVTALLLPLALLLHAARPQVQLVESGGGLVQPGGSLRLSCAASGFTFTNHAMSWVRQAPGKGLELVSSISGNGRTTYYADSVKGRFTISRDISKNTLDLQMNSLRAEDTAVYYCAKDGGETLVDSRGQGTLVTVSSLEAAAKEDLKNVFPPEVAVFEPSEAEISHTQKATLVCLATGFYPDHVELSWWVNGKEVHSGVCTDPQPLKEQPALNDSRYCLSSRLRVSATFWQNPRNHFRCQVQFYGLSENDEWTQDRAKPVTQIVSAEAWGRADCGFTSESYQQGVLSATILYEILLGKATLYAVLVSALVLMAMVKRKDSRGRAKRSGSGATNFSLLKQAGDVEENPGPTSMDWIWRILFLVGAATGAHSFEEVQLLESGGGLVQPGGSLRLSCAASGFTFSSYAMSWVRQAPGKGLEWVSSISGSGDYIYYADSVKGRFTISRDISKNTLYLQMNSLRAEDTAVYYCAKEGTGANSSLADYRGQGTLVTVSSTRIQNPDPAVYQLRDSKSSDKSVCLFTDFDSQTNVSQSKDSDVYITDKCVLDMRSMDFKSNSAVAWSNKSDFACANAFNNSIIPEDTFFPSPESSCDVKLVEKSFETDTNLNFQNLSVIGFRILLLKVAGFNLLMTLRLWSSRAKRSGSGVKQTLNFDLLKLAGDVESNPGPSRGHMTEYKPTVRLATRDDVPRAVRTLAAAFADYPATRHTVDPDRHIERVTELQELFLTRVGLDIGKVWVADDGAAVAVWTTPESVEAGAVFAEIGPRMAELSGSRLAAQQQMEGLLAPHRPKEPAWFLATVGVSPDHQGKGLGSAVVLPGVEAAERAGVPAFLETSAPRNLPFYERLGFTVTADVEVPEGPRTWCMTRKPGA

What follows are molecules tested on L363 cells (assay: JNG assay, co-culture with L363 cells). Conditions: co-culture with L363.
Type: cell-based
How it was run: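 Jurkat NFAT-GFP (JNG) cells stably transduced with SARs by lentivirus, with drug selection where the construct carried a resistance gene, then co-cultured with target cells at E:T ~1:2 for ~4–18 h. % GFP-positive cells measured by FACS against parental JNG; +/- to 5+ correspond to ~5–50% GFP-positive.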
With B1 the “NFAT-GFP ASSAY: L363” value was “L363 (+/-) (refer to approximately 5%, 10%, 20%, 30%, 40% and 50% GFP positive cells)”.
With B2 the “NFAT-GFP ASSAY: L363” value was “+/- (refer to approximately 5%, 10%, 20%, 30%, 40% and 50% GFP positive cells)”.
B3 was tested, and the “NFAT-GFP ASSAY: L363” value was 3+ (refer to approximately 5%, 10%, 20%, 30%, 40% and 50% GFP positive cells).
B4 was tested, and the “NFAT-GFP ASSAY: L363” value was “L363 (2+) (refer to approximately 5%, 10%, 20%, 30%, 40% and 50% GFP positive cells)”.
In the case of B5, the “NFAT-GFP ASSAY: L363” value is reported as “L363 (4+) (refer to approximately 5%, 10%, 20%, 30%, 40% and 50% GFP positive cells)”.
In the case of B6, the “NFAT-GFP ASSAY: L363” value is reported as “L363 (+/-) (refer to approximately 5%, 10%, 20%, 30%, 40% and 50% GFP positive cells)”.
